{"source": "patent US20260242447A1", "about": "(CREATIVE BIOTHERAPEUTICS, published 2026)", "binders": {"B1": {"name": "K5 (5th kringle domain of human plasminogen) (other)", "chain": "SEEDCMFGNGKGYRGKRATTVTGTPCQDWAAQEPHRHSIFTPETNPRAGLEKNYCRNPDGDVGGPWCYTTNPRKLYDYCDVPQCAAPKS", "notes": "also called kringle 5"}}, "key": {"[1]": {"biological_target": "T1, GRP78 (soluble / recombinant protein) (UniProt P11021 19-654)", "T1 construct": "also called GRP78-HRP; HRP-labeled GRP78", "T1 sequence (P11021 19-654 limits assumed)": "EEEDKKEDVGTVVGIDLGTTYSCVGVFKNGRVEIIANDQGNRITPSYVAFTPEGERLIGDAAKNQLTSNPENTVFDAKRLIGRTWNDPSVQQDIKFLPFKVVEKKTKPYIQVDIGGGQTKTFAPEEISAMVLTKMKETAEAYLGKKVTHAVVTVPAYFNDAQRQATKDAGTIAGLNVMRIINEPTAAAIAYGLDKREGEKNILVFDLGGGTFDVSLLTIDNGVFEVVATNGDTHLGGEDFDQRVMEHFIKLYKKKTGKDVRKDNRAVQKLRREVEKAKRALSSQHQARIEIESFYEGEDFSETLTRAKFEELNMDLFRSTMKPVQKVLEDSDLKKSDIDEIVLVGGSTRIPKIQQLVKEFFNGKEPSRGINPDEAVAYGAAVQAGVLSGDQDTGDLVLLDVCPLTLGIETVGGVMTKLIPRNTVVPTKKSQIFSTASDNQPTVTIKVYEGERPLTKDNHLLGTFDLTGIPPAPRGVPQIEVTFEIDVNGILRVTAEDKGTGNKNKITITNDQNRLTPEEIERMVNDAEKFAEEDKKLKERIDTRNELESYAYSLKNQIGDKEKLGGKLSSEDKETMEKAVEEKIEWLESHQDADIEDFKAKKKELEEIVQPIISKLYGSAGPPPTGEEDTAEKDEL", "experiment": "method not stated"}, "[2]": {"biological_target": "T1, GRP78 (soluble / recombinant protein)"}}}
{"binder": "B1", "values": [{"measurement": "Kd", "setting": "[1]", "value": 0.6, "unit": "nM"}, {"measurement": "IC50", "setting": "[2]", "value": 460, "unit": "nM"}]}
